In article PMC8632965, “CD98-induced CD147 signaling stabilizes the Foxp3 protein to maintain tissue homeostasis” (Cellular and Molecular Immunology, 2021) one finds Kd data, which are given here for one molecule.

In this assay the target is CDK2 protein (purchased from Sino Biological Inc.) (UniProt P24941 1-298). Put plainly: SPR; CD147ICD immobilised on a CM5 chip; CDK2 injected at 30 µL/min; BSA signal subtracted. Conditions: both partners purified. (In general: SPR reads the build-up and loss of mass on a sensor chip optically.)

B1: intracellular portion of CD147 (ICD, 230-269) (domain or fragment)
chain: EKRRKPEDVLDDDDAGSAPLKSSGQHQNDKGKNVRQRNSS
notes: CD147 (basigin), human, residues 230-269, intracellular portion; also called CD147’s intracellular domain; CD147’s intracellular segment; source: E. coli OrigamiB (DE3), purified (expressed and purified in the same way as for CD147)
Usually Kd stands for a measure of binding affinity in units of concentration. High values mean weaker binding, low ones tighter binding. In turn, B1 showed a Kd of 16.7 µM.
